# Data: US20080187554A1, “Process for producing stable HIV Th-CTL peptides” (Wyeth, priority 2005, published 2008)
# Assay: Stability by RP-HPLC for peptide quantification
# Format: physicochemical
# Conditions: lyophilized, 40° C., six-months time point, all three concentrations (FIGS. 6-8)
# From the text: The stability was also monitored for pre-lyophilization formulations. Stability assays basically include appearance (visual inspection), pH, FLS, peptide fluorescence, and RP-HPLC for peptide quantification.
substance,measurement,value
"H-Lys-Gln-Ile-Ile-Asn-Met-Trp-Gln-Glu-Val-Gly-Lys-Ala-Met-Tyr-Ala-Lys-Ala-Phe-Ser-Pro-Glu-Val-Ile-Pro-Met-Phe-OH (H-KQIINMWQEVGKAMYAKAFSPEVIPMF-OH; also: acetate salt) [Peptide A, HIV Th/CTL peptide]",potency change at accelerated temperature,potency decreases
